# Measurements from patent publication US20060252692A1, “Inhibitors for use in hemostasis” (ZymoGenetics, Inc., priority 2002, published 2006).
# B1: zsig37: adipocyte complement related protein homolog, polypeptide of SEQ ID NO:2, inhibits collagen-mediated platelet activation and the complement pathway (protein, listed as Homo sapiens)
# chain: MGSRGQGLLLAYCLLLAFASGLVLSRVPHVQGEQQEWEGTEELPSPPDHAERAEEQHEKYRPSQDQGLPASRCLRCCDPGTSMYPATAVPQINITILKGEKGDRGDRGLQGKYGKTGSAGARGHTGPKGQKGSMGAPGERCKSHYAAFSVGRKKPMHSNHYYQTVIFDTEFVNLYDHFNMFTGKFYCYVPGLYFFSLNVHTWNQKETYLHIMKNEEEVVILFAQVGDRSIMQSQSLMLELREQDQVWVRLYKGERENAIFSEELDTYITFSGYLVKHATEP
# Legend:
# [1] = test system: serotonin-contracted rat aortic sections; assay: Relaxation of serotonin-induced rat aortic ring contractions; design: species or system Sprague-Dawley rats
# Experimental: Male, Sprague-Dawley rats, approximately 3 months of age, were lightly anesthetized with CO2 and then decapitated. The thoracic aorta was then rapidly removed and placed in a modified Kreb's-Henseleit buffer (NaCl, 118.2 mM; KCl, 4.6 mM; CaCl2, 2.5 mM; MgSO4, 1.2 mM; NaHCO3, 24.8 mM; KH2PO4, 1.2 mM; and glucose, 10.0 mM). From each rat, four 2-3 mm aortic ring sections were cut after discarding the rough end of the aorta. In some experiments the endothelium was denuded, prior to cutting ring sections, by rubbing the lumen of the aorta along a 21 gauge needle. Denudation of the endothelium was verified by the addition of the acetylcholine analogue, carbachol, prior to determining zsig37 concentration-dependent responses.
# The rings were fixed and connected to force displacement transducers in oxygenated (95% O2, 5% CO2), jacketed, glass organ baths kept at 30° C. in modified Kreb's-Henseleit buffer, pH 7.4. Resting tension was set at 1 gm, and continually re-adjusted to 1 gm over a one-hour incubation period. Fresh oxygenated modified Kreb's-Henseleit buffer was added to the baths every fifteen minutes during the resting incubation period. At the end of the one-hour incubation, the ring sections were contracted by the addition of 10 μM serotonin. After maximum contraction had been reached, approximately 15-20 minutes after the addition of the serotonin, cumulative concentration response curves for zsig37 were constructed. Zsig37 was added to 5 ml baths in volumes from 5 up to 150 μls, for final concentrations ranging from 1 ng/ml up to 40 μg/ml. Viability of the ring sections was verified at the end of the concentration response by the addition of forskolin (2.5 μM or 25 μM) or nitroglycerin (22 μM).
# [2] = test system: iliac artery crush injury/stenosis; assay: Rabbit iliac artery crush injury/stenosis model; assay type: in vivo, New Zealand White rabbits
# Experimental: The effect of zsig37 on blood flow dynamics following vascular injury in a rabbit iliac artery crush injury/stenosis model was also evaluated. Young adult male New Zealand White rabbits were anesthetized as described above. Via an abdominal incision, the aorto-iliac bifurcation was exposed and each iliac freed of surrounding tissues and the main branches ligated. Each iliac was fitted with an ultrasound flow probe to monitor blood flow through the vessel. Based on blood flow data, one iliac was selected to be used for the injury and the other was catheterized for delivery of the test sample. Rabbits were divided into dose groups of 6 animals/group. Test sample doses containing zsig37 increased in half-log increments from 3-1000 μg/kg over the selected infusion period. The test samples infusion was initiated followed by creation of a critical stenosis that reduced blood flow through the vessel by approximately 50%. After creation of the stenosis and a period of blood flow stabilization, the vessel was injured by crushing the vessel between the jaws of a smooth needle holder. The infusion was continued post-injury for a set period of time, 10-20 minutes. Blood flow through the injured vessel was monitored for 60 minutes post-injury. The animals were euthanized at he conclusion of the study period. […]
# [3] = test system: atherosclerotic rabbit femoral/iliac artery crush injury; assay: Atherosclerotic Folts model, blood flow; assay type: in vivo, New Zealand White rabbits; settings: 1 mg/kg bolus, n=8, vs 1 mg/kg BSA; p=0.0305
# Text: In the present experiment the standard Folts model was modified to study restenosis in rabbits. In this design, New Zealand White rabbits that normally are not prone to atherosclerosis were fed an atherogenic diet (e.g., 2% cholesterol and 6% coconut oil) for two weeks, underwent balloon denudation of an artery segment and then were continually fed the atherogenic diet. Within three weeks, atherosclerotic plaque had accumulated in the balloon-injured area. At this time, the animal was prepped for surgery and the atherosclerotic vessel was injured via a crush procedure and a Folts model study was performed.
# Eleven male New Zealand White rabbits weighing 2.0-2.5 kg were used in this study. Atherosclerosis was developed in the right iliac and femoral arteries following a protocol described by Faxon et al., Am J. Cardiol., 1984, 53:72C-76C; and Faxon et al., Atherosclerosis. 1982, 2:125-133), with the following modifications. […]
# Animals were administered 100 U/kg heparin. […] The flow rate was monitored and the vessel tapped to release the thrombus when the flow rate approached 0.7 ml/min. […] Blood flow through the injured vessel was monitored for 60 minutes post bolus infusion. […] Blood pressure was monitored throughout and, prior to termination, blood samples for coagulation factors were collected. […]
# Statistical Analysis. All values are expressed as mean±SEM. […]
molecule,measurement,setting,value
B1,time to plateau of relaxation response after addition,[1],3 to 5 min
same,time to relaxation after addition of each concentration,[1],30 to 60 s
same,concentration at which relaxation was first observed,[1]; 10 μM serotonin,above 100 ng/ml
same,vasorelaxation of serotonin-contracted aortic sections,"[1]; 10 μM serotonin, with and without an intact endothelium, 1 ng/ml up to 40 μg/ml",concentration-dependent vasorelaxation
same,patency time,"[2]; 3-1000 μg/kg infusion, 60 minute period",tendency for zsig37 to promote increased patency time with increased dose up to 300 μg/kg
same,thrombolytic activity,"[2]; study with zsig37 hexamer, flow starting from occlusion",possesses thrombolytic activity
same,blood flow in final 30 minutes,[3],continuously patent
